assay: soluble on expression in E. coli; label from the status in PepcDB or PDB records

Soluble on expression in E. coli, not soluble:
MGSDKIHHHHHHMEITIFGKGNMGQAIGHNFEIAGHEVTYYGSKDQATTLGEIVIMAVPYPALAALAKQYATQLKGKIVVDITNPLNFDTWDDLVVPADSSAAQELQQQLPDSQVLKAFNTTFAATLQSGQVNGKEPTTVLVAGNDDSAKQRFTRALADSPLEVKDAGKLKRARELEAMGFMQMTLAASEQIGWTGGFAVVK, MGSDKIHHHHHHMEKIGELINHFRENKGMSQAELSEGILSKAQLSKFERDLTKISVDKFLALLERLHVTFTEFGNALAIQERLYEQAILEDITKAVINNNKDQAQLVKERAEQHLKKHHGKYNQLTLIMVKAMICDMEKGTLPKADTKVLADYLFSVDGWTHFELLLFGNTMSALSLVTVNQLARELAAQINEAWAIHQNFQLTINLLYNVVILNLSAKDLTTARLFLRVMKHSHVEDSMMAERYLIALADAFCDYCGEPTVEHENNVKRMIEIQKEIGSTNFFVAFNNQAKMFISETKISSNDSAGNV, MGSDKIHHHHHHMEKILTKQEIEALLAAVFEGKIEPDKELAKAEATVQSYDLFSSESKGNIPNLDIIYDSFIRYQRGTLSNRLGRIVEIKKVGAASFKFDDFLHTMPSPVAMAVYKADPLKGAALIAFDSTLVFTIVDCILGGTGSSVVPTVGNRMFTSIELRLVQKIVMDVLADLEKAWAPIYATKMGFLRMEMNPRLVNIVPPEYQVVTMEMEIQIEEIIGKMIFAVPLTTIDPVREKLKNGAQVDMMAIDPQWSFRLSKELLEAPLDLSVEVGGAIISMDELLNLTPGDTIMLDTPCNSDLVVKVGGVSKFMSAPGLRHGNKAAQITTIIGKGREQ, MGSDKIHHHHHHMEKLLTIVVPAYNVEKYIKNCLDSFIDLSVLRSLEILIVDDGSTDSTASLAHTYEQKYPYSFKVLSKENGGHGSTINYAIPRATGKYFKVVDGDDWLDKSLLPQFVQLLKHTHSDVISNDFNLVDDKTKKVTKRRKAVSNSYHYNREWGFAEAVMDPLITIHSMTIRTDVLQKNDIRVDEHCFYEDQEYILYPIPYCTSITFSPLPLYQYRLGRSGQSVDIKMMIKRHDQHLKVLDALFEYNNVHGNLQTYKKQYLERGIAEAVDDEYQIFLAKGNDTRNVEQMKKFDEMLREEHPGVYQACSRKSVWMLRKTGFKIFPMAAWVYSRLRGN, MGSDKIHHHHHHMEKMLYTAASGAVRILEAQSIRANNLANAETAGFKADLERVNAVPLVAQGNSLNTRVMAQTESSGFSQQSGVINPTGRSLDLAIRDRGLFSVAVDGAEAYTRSGAIETNAEGQLTIDGRPVLGIDGPIALPEYKDVFVGEDGTVSVLPAEGGIIEEVGRLKLVNPDFALMQKGQDGLLYRRDGQAVPQDEGVLVDSGFLESSNVQAVSELIASMDLSRQFEIQVKLMKSAEKLAEAGNRLLGNV, MGSDKIHHHHHHMEKRQSIKDIEANGDVRGLFLLGAATLNQARNGPFWRLELRDATGTMEAKIWSPQSQAYPDLAPGQIVDLEGRSGTYRDRVEVTVERLRTLGEAEQASLDISQFLPASERPAAEMLEELERLCREVFTHAPWRKFVLGVLRDDDVRPRLLVAPAAKAVHHAFVGGLVEHILSVTRLCLHLAEHYPELDRQALVAGAIFHDIGKVWELTGGLANDYSDEGRLLGHIHIGLERIEPHLRKSGLEPELVMHFKHLILSHHGELEYGSPKRPKTAEAMVLHYADNIDAKMAQMRGLFANMGEGETGWSPYQNTLQRFLYRPARTPEPVATTRRRRGTPEVEQCSLLSKA, MGSDKIHHHHHHMELNLQTAELALREASESNPGAWADHSRFVAEACKNIASHCKDLSSEQAYIFGLLHDIGRYAGVSSERHLIDGYRYCMERGWEKAAQICISHAFMIQDIATSIGVFDVSDEDYLFMKEFVANAVYDDYDRLVQLCDALAMPSGFCLLEKRFVDVTMRYGVHPATIDRWKKILEIKEQFENQIGCSIYSLLPGIVENSFR, MGSDKIHHHHHHMELQDKYIRFDWAVKRLLRHKANFGVLEGFLTVLIGDEIHIVEILESEGNQQTENDKFNRVDIKALNSKNEIVIIEIQNTRELYYLERILYGVAKAITEHISLGETYYKVKKIYSISILYFDIGHGTDYLYHGQNIFKGVHTGDFLQVSTREKDAIVPRMPSEIYPEYFLIRVNEFNKVAVTPLEEWIEYLKTGIIRPDTTAPGLGEAREKLKYYSMTPQERHAYDEHLSALMIQNDVLDSAKLEGKIEGKIEGKIEGRLEGRAEGREEGREEGIKEGVLRNARRMKEKGFSTEDIMEITGLTFEEVSQL, MGSDKIHHHHHHMELVDKDLRSIQETRNLIRKAKEAQQVLATFSQKQIDAIVQAVSEATFNQREKLAKMANEETGFGIYEDKIIKNAFASKVVYDEMKDKATVGVIHDDAAKKVTEIAVPVGVIAGLIPSTNPTSTVIYKALISLKAANSIVFSPHPNALKSIIETVEIIQKAAIAAGAPEGCVSVIKTPTMQATSELMKNKETNLILATGGNAMVKAAYSSGTPAIGVGPGNGPAYIERSANVPHAVKQIMDSKTFDNGTICASEQSIIVETVNREAVKEELIKQGAYFLSPAEADKLAKFILRPNGTMNPQIVGRSVQHIASLVGLSIPKDRRLIVAEETHVGLKYPFSREKLAPIIAFYTVENWEAACALSIEILKGEGAGHTMGIHTENKEVIREFGLRKPVSRLLVNTSGTLGGIGASTNLVPALTLGCGAVGGSSTSDNIGVENLFNLRRVAYGVRDLEEIRQEFGQTSTTSVATSCETTNQEELVNAVVAQVLARLN, MGSDKIHHHHHHMENDFPLKGKTVLVTRNKAQAASFQQKVEALGGKAVLTSLITFRRALPNDVAEQVREDLAAPGWLVFTSVNGADFFFSYLKENQLILPAHKKIAAVGEKTARRLKMHNVSVDVMPQEYIAEQLADALKQHAEPGETITVMKGNLSRDVIKQELVPLGFEVKEWVLYETIPDEEGIEALKDAAGQYSFDYVTFTSSSTVHTFMHVLGEELKKWKANGTACISIGPLTNDALLTYGITSHTPDTFTIDGMLELMCSMSREEERI, MGSDKIHHHHHHMEPIMRNPEDALLDSWHQNAQAWIDAVRHGAIESRRQVTDQAILLAILGRQPERVLDLGCGEGWLLRALADRGIEAVGVDGDRTLVDAARAAGAGEVHLASYAQLAEAKVPVGKDYDLICANFALLHQDIIELLSAMRTLLVPGGALVIQTLHPWSVADGDYQDGWREESFAGFAGDWQPMPWYFRTLASWLNALDMAGLRLVSLQEPQHPQSAVPQSLLMVAERH, MGSDKIHHHHHHMEPTFQPSRSAIPVLSVSGVGKTYAEPVLADVTLTLAPGEALALTGENGAGKSTLSKIIGGLVDPTTGTMQLGGQAYAPASRTQAEALGVRMVMQELNLLPTLTVAENLFLNRLPRRFGIIDRARLHDDAQAAMARVGLDAIDPDTPVGALGIGHQQMVEIARNLIGDCRVLILDEPTAMLTAREVELLFEQIDRLKAHGVAIVYISHRLDELARVAERVAVLRDGRLVHVGDMAATTSDGLVTLMVGREIGEHIDLGPRRIGAPRLAVSGMTRGTAVQDVSLEVRSGEIFGISGLIGAGRTELLRLIYGADTPDAGMISVGDPLKPARIASPVDAVRHGIALITEDRKGEGLLLSQSVTSNVSLGQLEQLARGGIVNTARETALAEQQIDALRIRTHGAAQPVGELSGGNQQKVVIGRWLARDMGVLLFDEPTRGIDVGAKFEIYTLMGALARDGRALVVVSSDLRELMLICDRIGVMSAGRMTAVFERGNWTQDALLAAAFAGFGRDALPEGARHLDAQAAPRAASGTSTTGRQQ, MGSDKIHHHHHHMERLPTTPHDAVFRQMLMQKEVARDFLAIHMPEDFLAICDLDSLKLESGSFVEDNLRSRYSDILYSLHTQHGPGYVYALIEHQSKSDRLMAFRLMRYAIAAMQRHLDAGHDTLPLVVPILFYHGPESPWPYSLNWHNMFVKPDMAKALYSRDFALVDLTTMPDNQLLQHRRIAMLELLQKHIRQRDLSELLDPLITLLTQDHLTDAQLSVLINYMLKAGNAAEPGALIRQLAQGAPQYKEQLMTIAEWLEEKGRTEGLQKGLQKGLEQGLAQGREAEARAIARKMLANGLEPGLIASVTGITPEELSTLSH
